The record followed here is patent publication KR20150077749A (dated 2015).

Assay [1] has as its target T1, AIMP1 (Aminoacyl-tRNA-synthetase-interacting multifunctional protein 1), purified recombinant antigen (UniProt Q12904 1-312, limits assumed).
T1 construct: also called AIMP1(p43); p43
T1 sequence (looked up): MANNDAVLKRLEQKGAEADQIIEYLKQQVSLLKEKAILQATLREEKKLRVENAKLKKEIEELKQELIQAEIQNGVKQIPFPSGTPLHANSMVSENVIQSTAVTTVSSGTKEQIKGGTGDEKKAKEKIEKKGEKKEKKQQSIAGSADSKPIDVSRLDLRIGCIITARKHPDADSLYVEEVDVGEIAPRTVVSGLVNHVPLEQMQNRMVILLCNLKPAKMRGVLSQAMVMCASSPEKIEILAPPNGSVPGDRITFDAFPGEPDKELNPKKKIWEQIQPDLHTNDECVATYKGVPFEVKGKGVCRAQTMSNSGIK
Description: Luminex multiplex bead assay, antigen coupled to beads, anti-HA-biotin / SA-PE detection.

The target of assay [2] is T2, YRS (Tyrosyl-tRNA synthetase), purified recombinant antigen (UniProt P54577 1-528, limits assumed).
T2 construct: also called 타이로실-tRNA 합성효소
T2 sequence (looked up): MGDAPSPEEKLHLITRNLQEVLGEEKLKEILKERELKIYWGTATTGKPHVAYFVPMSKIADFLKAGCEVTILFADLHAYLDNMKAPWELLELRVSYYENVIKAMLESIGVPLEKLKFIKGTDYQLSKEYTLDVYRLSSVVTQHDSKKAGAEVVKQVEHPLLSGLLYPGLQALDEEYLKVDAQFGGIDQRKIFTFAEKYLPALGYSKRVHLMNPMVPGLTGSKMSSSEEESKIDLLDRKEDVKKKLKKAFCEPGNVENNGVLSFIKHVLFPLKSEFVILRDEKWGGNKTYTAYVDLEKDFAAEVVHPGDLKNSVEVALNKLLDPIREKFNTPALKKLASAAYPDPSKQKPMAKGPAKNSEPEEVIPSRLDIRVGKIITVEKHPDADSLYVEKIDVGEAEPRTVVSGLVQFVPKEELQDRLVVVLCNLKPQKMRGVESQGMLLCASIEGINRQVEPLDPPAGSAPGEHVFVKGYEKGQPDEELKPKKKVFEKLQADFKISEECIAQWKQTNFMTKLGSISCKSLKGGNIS
The assay is described as above.

The target in assay [3] is T3, HRS (Histidyl-tRNA synthetase), purified recombinant antigen (UniProt P12081 1-509, limits assumed).
T3 construct: also called 히스티딜-tRNA 합성효소
T3 sequence (looked up): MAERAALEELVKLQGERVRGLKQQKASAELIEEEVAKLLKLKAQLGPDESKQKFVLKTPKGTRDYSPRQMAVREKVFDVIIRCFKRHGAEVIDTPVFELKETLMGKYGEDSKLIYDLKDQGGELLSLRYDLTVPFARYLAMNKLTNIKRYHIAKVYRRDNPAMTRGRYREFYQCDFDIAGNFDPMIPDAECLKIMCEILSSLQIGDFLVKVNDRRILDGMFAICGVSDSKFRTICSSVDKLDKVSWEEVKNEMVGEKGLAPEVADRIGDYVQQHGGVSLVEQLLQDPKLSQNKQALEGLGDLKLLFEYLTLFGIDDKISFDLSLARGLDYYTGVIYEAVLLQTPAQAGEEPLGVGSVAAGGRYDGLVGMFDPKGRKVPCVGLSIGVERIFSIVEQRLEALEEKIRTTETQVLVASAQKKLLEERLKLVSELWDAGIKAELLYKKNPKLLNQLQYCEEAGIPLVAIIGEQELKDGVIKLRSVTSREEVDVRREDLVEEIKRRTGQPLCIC
The description is as above.

Assay [4] has as its target T4, SRS (Seryl-tRNA synthetase), purified recombinant antigen (UniProt P49591 1-514, limits assumed).
T4 construct: also called 세릴-tRNA 합성효소
Described as above.

Assay [5] has as its target T5, WRS (Tryptophanyl-tRNA synthetase), purified recombinant antigen (UniProt P23381 1-471, limits assumed).
T5 construct: also called 트립토파닐-tRNA 합성효소
T5 sequence (looked up): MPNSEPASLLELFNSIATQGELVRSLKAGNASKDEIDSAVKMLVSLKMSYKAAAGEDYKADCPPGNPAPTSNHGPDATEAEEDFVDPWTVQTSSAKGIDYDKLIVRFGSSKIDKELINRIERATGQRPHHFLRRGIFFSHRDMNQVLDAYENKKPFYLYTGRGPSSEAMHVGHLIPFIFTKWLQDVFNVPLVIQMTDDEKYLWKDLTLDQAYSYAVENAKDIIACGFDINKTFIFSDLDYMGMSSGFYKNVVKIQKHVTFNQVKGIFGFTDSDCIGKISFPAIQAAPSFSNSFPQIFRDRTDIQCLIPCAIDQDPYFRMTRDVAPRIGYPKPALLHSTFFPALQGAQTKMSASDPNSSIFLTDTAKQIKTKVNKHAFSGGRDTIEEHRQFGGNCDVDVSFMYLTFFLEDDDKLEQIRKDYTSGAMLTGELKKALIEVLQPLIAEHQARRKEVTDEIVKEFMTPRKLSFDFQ
Described as above.

For assay [6], the target named is T6, NRS (Asparaginyl-tRNA synthetase), purified recombinant antigen (UniProt O43776 1-548, limits assumed).
T6 construct: also called 아스파라기닐딜-tRNA 합성효소
T6 sequence (looked up): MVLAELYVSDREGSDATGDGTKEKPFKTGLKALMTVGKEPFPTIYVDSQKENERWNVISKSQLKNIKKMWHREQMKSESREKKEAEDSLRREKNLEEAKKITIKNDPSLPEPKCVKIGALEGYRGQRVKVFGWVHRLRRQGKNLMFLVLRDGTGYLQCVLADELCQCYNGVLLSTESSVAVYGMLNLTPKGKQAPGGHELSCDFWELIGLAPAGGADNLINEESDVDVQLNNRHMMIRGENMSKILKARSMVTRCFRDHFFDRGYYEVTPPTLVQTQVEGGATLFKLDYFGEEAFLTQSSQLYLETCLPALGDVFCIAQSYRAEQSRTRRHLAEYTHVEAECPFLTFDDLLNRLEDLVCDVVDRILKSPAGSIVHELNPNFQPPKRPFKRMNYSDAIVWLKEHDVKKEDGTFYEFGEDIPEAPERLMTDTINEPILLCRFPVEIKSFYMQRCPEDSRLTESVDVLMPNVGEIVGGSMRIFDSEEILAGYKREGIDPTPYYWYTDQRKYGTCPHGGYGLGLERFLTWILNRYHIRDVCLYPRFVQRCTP
The assay is described as above.

The target of assay [7] is T7, KRS (Lysyl-tRNA synthetase), purified recombinant antigen (UniProt Q15046 1-597, limits assumed).
T7 construct: also called 리실-tRNA 합성효소
Described as above.

Assay [8] has as its target T8, GRS expressed natively in human cells (HeLa cell lysate) (human, UniProt P41250 55-739, limits assumed).
T8 construct: Target of the western blot; also called human 세포에서 원래 발현된 GRS
T8 sequence (looked up): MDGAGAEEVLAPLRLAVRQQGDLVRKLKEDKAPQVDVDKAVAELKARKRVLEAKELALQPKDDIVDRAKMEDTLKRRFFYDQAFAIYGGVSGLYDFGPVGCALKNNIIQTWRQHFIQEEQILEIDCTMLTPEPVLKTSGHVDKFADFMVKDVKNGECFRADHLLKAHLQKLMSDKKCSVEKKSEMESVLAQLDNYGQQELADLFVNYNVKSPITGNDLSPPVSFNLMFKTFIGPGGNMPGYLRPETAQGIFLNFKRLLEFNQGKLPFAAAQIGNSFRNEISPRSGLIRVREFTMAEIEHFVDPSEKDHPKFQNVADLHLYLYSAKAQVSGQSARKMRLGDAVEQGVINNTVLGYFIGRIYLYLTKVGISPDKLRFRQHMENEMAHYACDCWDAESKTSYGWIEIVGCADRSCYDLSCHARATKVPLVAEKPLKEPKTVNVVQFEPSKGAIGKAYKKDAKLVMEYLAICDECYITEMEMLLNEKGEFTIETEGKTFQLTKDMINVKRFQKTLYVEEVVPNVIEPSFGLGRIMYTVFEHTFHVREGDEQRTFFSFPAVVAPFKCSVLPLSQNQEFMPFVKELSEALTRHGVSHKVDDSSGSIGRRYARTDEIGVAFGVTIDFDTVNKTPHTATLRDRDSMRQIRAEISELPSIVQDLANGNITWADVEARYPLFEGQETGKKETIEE
Briefly: western blot. On the technique in general: A western blot detects proteins with antibodies after separation by electrophoresis.

T7 sequence (Q15046 whole entry): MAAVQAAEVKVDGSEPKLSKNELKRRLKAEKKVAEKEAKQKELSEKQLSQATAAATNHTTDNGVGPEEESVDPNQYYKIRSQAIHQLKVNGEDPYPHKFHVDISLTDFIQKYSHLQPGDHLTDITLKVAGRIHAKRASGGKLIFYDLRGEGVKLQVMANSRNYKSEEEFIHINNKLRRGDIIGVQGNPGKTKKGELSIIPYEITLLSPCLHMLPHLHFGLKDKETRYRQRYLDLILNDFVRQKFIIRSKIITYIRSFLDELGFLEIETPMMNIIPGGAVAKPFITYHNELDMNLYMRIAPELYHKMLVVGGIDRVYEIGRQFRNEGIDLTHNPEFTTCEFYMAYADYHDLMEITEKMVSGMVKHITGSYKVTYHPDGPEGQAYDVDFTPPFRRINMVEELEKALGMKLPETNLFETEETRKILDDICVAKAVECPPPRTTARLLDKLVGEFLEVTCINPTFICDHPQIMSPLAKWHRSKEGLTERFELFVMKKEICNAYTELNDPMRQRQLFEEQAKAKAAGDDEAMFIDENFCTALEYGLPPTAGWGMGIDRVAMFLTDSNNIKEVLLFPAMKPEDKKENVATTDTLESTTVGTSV
T4 sequence (P49591 whole entry): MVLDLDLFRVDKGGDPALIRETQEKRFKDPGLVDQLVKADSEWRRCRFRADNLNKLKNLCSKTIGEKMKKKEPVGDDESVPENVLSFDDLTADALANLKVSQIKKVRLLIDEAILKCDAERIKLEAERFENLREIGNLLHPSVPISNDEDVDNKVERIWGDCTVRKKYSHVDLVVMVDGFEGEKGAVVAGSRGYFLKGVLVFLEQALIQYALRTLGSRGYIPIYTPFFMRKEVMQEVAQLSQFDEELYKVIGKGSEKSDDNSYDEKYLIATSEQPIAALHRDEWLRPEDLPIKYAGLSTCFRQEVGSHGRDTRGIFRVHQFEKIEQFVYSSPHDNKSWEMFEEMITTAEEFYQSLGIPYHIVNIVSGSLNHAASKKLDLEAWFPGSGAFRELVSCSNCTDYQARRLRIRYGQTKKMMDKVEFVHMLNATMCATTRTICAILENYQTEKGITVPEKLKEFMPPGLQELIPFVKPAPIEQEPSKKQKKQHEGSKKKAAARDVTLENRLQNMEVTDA

B1: anti-GRS scFv, SEQ ID NO 13 (antibody i) (scFv)
scFv: EVQLLESGGGLVQPGGSLRLSCAASGFTFSDYDMSWVRQAPGKGLEWVSAISPDDGSKYYADSVKGRFTISRDNSKNTLYLQMNSLRAEDTAVYYCARTTWLFDYWGQGTLVTVSSGGGGSGGGGSGGGGSQSVLTQPPSASGTPGQRVTISCTGSSSNIGNNYVNWYQQLPGTAPKLLIYADSHRPSGVPDRFSGSKSGTSASLAISGLRSEDEADYYCGAWDSSLSGYVFGGGTKLTVL
notes: One of the three scFvs selected by phage display (human VH3-23/VL1g framework), expressed from pComb3X in the E. coli periplasm; It was purified on Ni-NTA and detected with anti-HA, so it carries His and HA tags; Every result written here is told alike for all three scFvs; also called 본 발명의 항체; 항 GRS scFv 항체
B1: the binding result in assay [1], in assay [2], in assay [3], in assay [4], in assay [5] and in assay [6] was “no binding” throughout. Besides, the binding result in assay [7] was “no binding”.

B2: anti-GRS scFv, SEQ ID NO 41 (antibody iii) (scFv)
scFv: EVQLLESGGGLVQPGGSLRLSCAASGFTFSNYDMSWVRQAPGKGLEWVSWIYSNGSSTYYADSVKGRFTISRDNSKNTLYLQMNSLRAEDTAVYYCARITCMFDYWGQGTLVTVSSGGGGSGGGGSGGGGSQSVLTQPPSASGTPGQRVTISCSGSSSNIGSNYVTWYQQLPGTAPKLLIYADSHRPSGVPDRFSGSKSGTSASLAISGLRSEDEADYYCGSWDYSLNGYVFGGGTKLTVL
notes: One of the three scFvs selected by phage display, expressed from pComb3X in the E. coli periplasm; His and HA tags were used for purification and detection; also called 본 발명의 항체; 항 GRS scFv 항체
With B2, the binding result in assay [1], in assay [2], in assay [3], in assay [4], in assay [5] and in assay [6] was “no binding” in each case. Moreover, the figures for the binding result in assay [7] and in assay [8] were “no binding” and “binds”, respectively.

B3: anti-GRS scFv, SEQ ID NO 27 (antibody ii) (scFv)
scFv: EVQLLESGGGLVQPGGSLRLSCAASGFTFSGYDMSWVRQAPGKGLEWVSAIYSDSGSTYYADSVKGRFTISRDNSKNTLYLQMNSLRAEDTAVYYCARNTALFDYWGQGTLVTVSSGGGGSGGGGSGGGGSQSVLTQPPSASGTPGQRVTISCSGSSSNIGSNYVTWYQQLPGTAPKLLIYANNHRPSGVPDRFSGSKSGTSASLAISGLRSEDEADYYCGAWDASLSGYVFGGGTKLTVL
notes: as for B2
For B3, the binding result in assay [1], in assay [2], in assay [3], in assay [4], in assay [5] and in assay [6] was “no binding” each time. Besides, the binding result in assay [7] was “no binding”; in assay [8], “binds”.
